Series [1] relates to HeLa Kyoto. Briefly: solubility in G1/S (NP-40 vs SDS abundance) (log2 ratio); higher = more soluble. Particulars: cell cycle stage: G1/S.
Series [2] relates to HeLa Kyoto. Nature of the series: melting temperature (median over replicates), in situ; higher = more thermally stable.
In series [3] the test system is HeLa Kyoto. Nature of the series: solubility change mitosis vs G1/S (difference of NP-40 vs SDS log2 ratios) (log2 ratio difference); higher = more soluble in mitosis.
Series [4] relates to HeLa Kyoto. Briefly: thermal stability score vs G1/S (z-score of summed log2 fold changes over temperatures); higher = more thermally stable than in G1/S.
[5] abbreviates: cell cycle stage: early G1 (4.5 h after nocodazole release).
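For melting temperature (median over replicates), in situ in this document: HeLa Kyoto cells synchronized by double thymidine or nocodazole block, proteins quantified by TMT10plex mass spectrometry, three independent biological replicates.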
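For solubility change mitosis vs G1/S (difference of NP-40 vs SDS log2 ratios) in this document: synchronized HeLa Kyoto cells (double thymidine block for G1/S, nocodazole release for mitosis), protein amounts in NP-40 versus SDS lysates quantified by mass spectrometry, three biological replicates.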
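For solubility in G1/S (NP-40 vs SDS abundance) in this document: HeLa Kyoto cells arrested at G1/S by double thymidine block, proteins quantified by TMT10plex mass spectrometry in mild NP-40 versus SDS extracts, three biological replicates.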
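For thermal stability score vs G1/S (z-score of summed log2 fold changes over temperatures) in this document: synchronized HeLa Kyoto cells, proteins quantified by TMT10plex mass spectrometry, three biological replicates, mitosis taken 0.5 h after nocodazole release, G1/S directly after double thymidine block.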

As for “MFGTLLLYCFFLATVPALAETGGERQLSPEKSEIWGPGLKADVVLPARYFYIQAVDTSGNKFTSSPGEKVFQVKVSAPEEQFTRVGVQVLDRKDGSFIVRYRMYASYKNLKVEIKFQGQHVAKSPYILKGPVYHENCDCPLQDSAAWLREMNCPETIAQIQRDLAHFPAVDPEKIAVEIPKRFGQRQSLCHYTLKDNKVYIKTHGEHVGFRIFMDAILLSLTRKVKMPDVELFVNLGDWPLEKKKSNSNIHPIFSWCGSTDSKDIVMPTYDLTDSVLETMGRVSLDMMSVQANTGPPWESKNSTAVWRGRDSRKERLELVKLSRKHPELIDAAFTNFFFFKHDENLYGPIVKHISFFDFFKHKYQINIDGTVAAYRLPYLLVGDSVVLKQDSIYYEHFYNELQPWKHYIPVKSNLSDLLEKLKWAKDHDEEAKKIAKAGQEFARNNLMGDDIFCYYFKLFQEYANLQVSEPQIREGMKRVEPQTEDDLFPCTCHRKKTKDEL [KDELC1]”, the “solubility in G1/S (log2)” value with HeLa Kyoto [1] came to 0.0317. Also, the melting temperature in the series with HeLa Kyoto [2] (cell cycle stage: G1/S) came to 53.5 °C; in the series with HeLa Kyoto [2] (cell cycle stage: mitosis) it was 54 °C. Also, the “solubility change mitosis (log2)” value with HeLa Kyoto [3] is -0.102. The figures for the thermal stability score in the series with HeLa Kyoto [4] (setting [5]) and with HeLa Kyoto [4] (cell cycle stage: mitosis) were 2.25 and 2.83, respectively.
On to “MFPAAPSPRTPGTGSRRGPLAGLGPGSTPRTASRKGLPLGSAVSSPVLFSPVGRRSSLSSRGTPTRMFPHHSITESVNYDVKTFGSSLPVKVMEALTLAEVDDQLTINIDEGGWACLVCKEKLIIWKIALSPITKLSVCKELQLPPSDFHWSADLVALSYSSPSGEAHSTQAVAVMVATREGSIRYWPSLAGEDTYTEAFVDSGGDKTYSFLTAVQGGSFILSSSGSQLIRLIPESSGKIHQHILPQGQGMLSGIGRKVSSLFGILSPSSDLTLSSVLWDRERSSFYSLTSSNISKWELDDSSEKHAYSWDINRALKENITDAIWGSESNYEAIKEGVNIRYLDLKQNCDGLVILAAAWHSADNPCLIYYSLITIEDNGCQMSDAVTVEVTQYNPPFQSEDLILCQLTVPNFSNQTAYLYNESAVYVCSTGTGKFSLPQEKIVFNAQGDSVLGAGACGGVPIIFSRNSGLVSITSRENVSILAEDLEGSLASSVAGPNSESMIFETTTKNETIAQEDKIKLLKAAFLQYCRKDLGHAQMVVDELFSSHSDLDSDSELDRAVTQISVDLMDDYPASDPRWAESVPEEAPGFSNTSLIILHQLEDKMKAHSFLMDFIHQVGLFGRLGSFPVRGTPMATRLLLCEHAEKLSAAIVLKNHHSRLSDLVNTAILIALNKREYEIPSNLTPADVFFREVSQVDTICECLLEHEEQVLRDAPMDSIEWAEVVINVNNILKDMLQAASHYRQNRNSLYRREESLEKEPEYVPWTATSGPGGIRTVIIRQHEIVLKVAYPQADSNLRNIVTEQLVALIDCFLDGYVSQLKSVDKSSNRERYDNLEMEYLQKRSDLLSPLLSLGQYLWAASLAEKYCDFDILVQMCEQTDNQSRLQRYMTQFADQNFSDFLFRWYLEKGKRGKLLSQPISQHGQLANFLQAHEHLSWLHEINSQELEKAHATLLGLANMETRYFAKKKTLLGLSKLAALASDFSEDMLQEKIEEMAEQERFLLHQETLPEQLLAEKQLNLSAMPVLTAPQLIGLYICEENRRANEYDFKKALDLLEYIDEEEDININDLKLEILCKALQRDNWSSSDGKDDPIEVSKDSIFVKILQKLLKDGIQLSEYLPEVKDLLQADQLGSLKSNPYFEFVLKANYEYYVQGQI [NUP133]”, for which the “solubility in G1/S (log2)” value in the series with HeLa Kyoto [1] is -0.454. Besides, the melting temperature came to 51.9 °C in the series on HeLa Kyoto [2] (cell cycle stage: G1/S) and 49.6 °C in the series on HeLa Kyoto [2] (cell cycle stage: mitosis). Further, the “solubility change mitosis (log2)” value in the series with HeLa Kyoto [3] was 0.284. Also, the thermal stability score in the series with HeLa Kyoto [4] (setting [5]) is -2.95; in the series on HeLa Kyoto [4] (cell cycle stage: mitosis), -2.97.
“MFPFYSCWRTGLLLLLLAVAVRESWQTEEKTCDLVGEKGKESEKELALVKRLKPLFNKSFESTVGQGSDTYIYIFRVCREAGNHTSGAGLVQINKSNGKETVVGRLNETHIFNGSNWIMLIYKGGDEYDNHCGKEQRRAVVMISCNRHTLADNFNPVSEERGKVQDCFYLFEMDSSLACSPEISHLSVGSILLVTFASLVAVYVVGGFLYQRLVVGAKGMEQFPHLAFWQDLGNLVADGCDFVCRSKPRNVPAAYRGVGDDQLGEESEERDDHLLPM [M6PR]”: the “solubility in G1/S (log2)” value in the series on HeLa Kyoto [1] was 0.0483. The results for the melting temperature in the series on HeLa Kyoto [2] (cell cycle stage: G1/S) and in the series on HeLa Kyoto [2] (cell cycle stage: mitosis) were 60.3 °C and 59.1 °C, respectively. The “solubility change mitosis (log2)” value in the series on HeLa Kyoto [3] is -0.128. Further, the thermal stability score in the series with HeLa Kyoto [4] (setting [5]) is -1.67; in the series with HeLa Kyoto [4] (cell cycle stage: mitosis), -2.67.
As to “MFQFHAGSWESWCCCCLIPADRPWDRGQHWQLEMADTRSVHETRFEAAVKVIQSLPKNGSFQPTNEMMLKFYSFYKQATEGPCKLSRPGFWDPIGRYKWDAWSSLGDMTKEEAMIAYVEEMKKIIETMPMTEKVEELLRVIGPFYEIVEDKKSGRSSDITSVRLEKISKCLEDLGNVLTSTPNAKTVNGKAESSDSGAESEEEEAQEEVKGAEQSDNDKKMMKKSADHKNLEVIVTNGYDKDGFVQDIQNDIHASSSLNGRSTEEVKPIDENLGQTGKSAVCIHQDINDDHVEDVTGIQHLTSDSDSEVYCDSMEQFGQEESLDSFTSNNGPFQYYLGGHSSQPMENSGFREDIQVPPGNGNIGNMQVVAVEGKGEVKHGGEDGRNNSGAPHREKRGGETDEFSNVRRGRGHRMQHLSEGTKGRQVGSGGDGERWGSDRGSRGSLNEQIALVLMRLQEDMQNVLQRLQKLETLTALQAKSSTSTLQTAPQPTSQRPSWWPFEMSPGVLTFAIIWPFIAQWLVYLYYQRRRRKLN [ACBD5]”, the “solubility in G1/S (log2)” value in the series on HeLa Kyoto [1] was 0.0763. Moreover, the melting temperature with HeLa Kyoto [2] (cell cycle stage: G1/S) worked out at 47.3 °C; in the series with HeLa Kyoto [2] (cell cycle stage: mitosis), 49.4 °C. For the same sequence, the “solubility change mitosis (log2)” value in the series with HeLa Kyoto [3] was -0.129. The figures for the thermal stability score in the series on HeLa Kyoto [4] (setting [5]) and in the series with HeLa Kyoto [4] (cell cycle stage: mitosis) were 2.16 and 3.53, respectively.
Regarding “MFQLPVNNLGSLRKARKTVKKILSDIGLEYCKEHIEDFKQFEPNDFYLKNTTWEDVGLWDPSLTKNQDYRTKPFCCSACPFSSKFFSAYKSHFRNVHSEDFENRILLNCPYCTFNADKKTLETHIKIFHAPNASAPSSSLSTFKDKNKNDGLKPKQADSVEQAVYYCKKCTYRDPLYEIVRKHIYREHFQHVAAPYIAKAGEKSLNGAVPLGSNAREESSIHCKRCLFMPKSYEALVQHVIEDHERIGYQVTAMIGHTNVVVPRSKPLMLIAPKPQDKKSMGLPPRIGSLASGNVRSLPSQQMVNRLSIPKPNLNSTGVNMMSSVHLQQNNYGVKSVGQGYSVGQSMRLGLGGNAPVSIPQQSQSVKQLLPSGNGRSYGLGSEQRSQAPARYSLQSANASSLSSGQLKSPSLSQSQASRVLGQSSSKPAAAATGPPPGNTSSTQKWKICTICNELFPENVYSVHFEKEHKAEKVPAVANYIMKIHNFTSKCLYCNRYLPTDTLLNHMLIHGLSCPYCRSTFNDVEKMAAHMRMVHIDEEMGPKTDSTLSFDLTLQQGSHTNIHLLVTTYNLRDAPAESVAYHAQNNPPVPPKPQPKVQEKADIPVKSSPQAAVPYKKDVGKTLCPLCFSILKGPISDALAHHLRERHQVIQTVHPVEKKLTYKCIHCLGVYTSNMTASTITLHLVHCRGVGKTQNGQDKTNAPSRLNQSPSLAPVKRTYEQMEFPLLKKRKLDDDSDSPSFFEEKPEEPVVLALDPKGHEDDSYEARKSFLTKYFNKQPYPTRREIEKLAASLWLWKSDIASHFSNKRKKCVRDCEKYKPGVLLGFNMKELNKVKHEMDFDAEWLFENHDEKDSRVNASKTADKKLNLGKEDDSSSDSFENLEEESNESGSPFDPVFEVEPKISNDNPEEHVLKVIPEDASESEEKLDQKEDGSKYETIHLTEEPTKLMHNASDSEVDQDDVVEWKDGASPSESGPGSQQVSDFEDNTCEMKPGTWSDESSQSEDARSSKPAAKKKATMQGDREQLKWKNSSYGKVEGFWSKDQSQWKNASENDERLSNPQIEWQNSTIDSEDGEQFDNMTDGVAEPMHGSLAGVKLSSQQA [ADNP]”, in the series on HeLa Kyoto [1], the “solubility in G1/S (log2)” value is -0.566. Also, the melting temperature turned out to be 46.7 °C in the series with HeLa Kyoto [2] (cell cycle stage: G1/S) and 49.2 °C in the series on HeLa Kyoto [2] (cell cycle stage: mitosis). Moreover, in the series on HeLa Kyoto [3], the “solubility change mitosis (log2)” value is 0.303. Also, the thermal stability score came out at 1.91 with HeLa Kyoto [4] (setting [5]) and 4.53 with HeLa Kyoto [4] (cell cycle stage: mitosis).
For the sequence “MFRKARRVNVRKRNDSEEEERERDEEQEPPPLLPPPGTGEEAGPGGGDRAPGGESLLGPGPSPPSALTPGLGAEAGGGFPGGAEPGNGLKPRKRPRENKEVPRASLLSFQDEEEENEEVFKVKKSSYSKKIVKLLKKEYKEDLEKSKIKTELNSSAESEQPLDKTGHVKDTNQEDGVIISEHGEDEMDMESEKEEEKPKTGGAFSNALSSLNVLRPGEIPDAAFIHAARKKRQMARELGDFTPHDNEPGKGRLVREDENDASDDEDDDEKRRIVFSVKEKSQRQKIAEEIGIEGSDDDALVTGEQDEELSRWEQEQIRKGINIPQVQASQPAEVNMYYQNTYQTMPYGSSYGIPYSYTAYGSSDAKSQKTDNTVPFKTPSNEMTPVTIDLVKKQLKDRLDSMKELHKTNRQQHEKHLQSRVDSTRAIERLEGSSGGIGERYKFLQEMRGYVQDLLECFSEKVPLINELESAIHQLYKQRASRLVQRRQDDIKDESSEFSSHSNKALMAPNLDSFGRDRALYQEHAKRRIAEREARRTRRRQAREQTGKMADHLEGLSSDDEETSTDITNFNLEKDRISKESGKVFEDVLESFYSIDCIKSQFEAWRSKYYTSYKDAYIGLCLPKLFNPLIRLQLLTWTPLEAKCRDFENMLWFESLLFYGCEEREQEKDDVDVALLPTIVEKVILPKLTVIAENMWDPFSTTQTSRMVGITLKLINGYPSVVNAENKNTQVYLKALLLRMRRTLDDDVFMPLYPKNVLENKNSGPYLFFQRQFWSSVKLLGNFLQWYGIFSNKTLQELSIDGLLNRYILMAFQNSEYGDDSIKKAQNVINCFPKQWFMNLKGERTISQLENFCRYLVHLADTIYRNSIGCSDVEKRNARENIKQIVKLLASVRALDHAMSVASDHNVKEFKSLIEGK [PAXBP1]”, in the series on HeLa Kyoto [1], the “solubility in G1/S (log2)” value is -0.54. Further, the melting temperature was 48.6 °C with HeLa Kyoto [2] (cell cycle stage: G1/S) and 49 °C in the series with HeLa Kyoto [2] (cell cycle stage: mitosis). Besides, the “solubility change mitosis (log2)” value with HeLa Kyoto [3] was found to be 0.153. Further, the thermal stability score is 0.626 in the series on HeLa Kyoto [4] (setting [5]) and 1.5 with HeLa Kyoto [4] (cell cycle stage: mitosis).

Source of the values: the supplement of paper PMC5998384.
